Experimental data from US20090208491A1 (published 2009).
Substitutions are numbered along the chain they refer to. Blank lines part the entries; values can stand above or below the binder they belong to.

What was measured:
[1] = molecular target: Notch1 antigen protein (amino acids 1-220 of human Notch1 with human Fc-tag or histidine-tag) (human) (UniProt P46531); assay: Biacore, binding to Notch1 antigen
[2] = molecular target: T1, Notch1 antigen protein (amino acids 1-220 of human Notch1 with human Fc-tag or histidine-tag) (human, UniProt P46531 19-220); assay: ELISA of HEK 293 conditioned media on Notch1 antigen; heavy chain cotransfected with the murine 13M57 light chain
T1 construct: range 19-220; Made in insect cells with baculovirus; also called Notch1 antigen corresponding to EGF repeats 1-5; not shown: C-terminal human Fc-tag or histidine-tag
T1 sequence (looked up): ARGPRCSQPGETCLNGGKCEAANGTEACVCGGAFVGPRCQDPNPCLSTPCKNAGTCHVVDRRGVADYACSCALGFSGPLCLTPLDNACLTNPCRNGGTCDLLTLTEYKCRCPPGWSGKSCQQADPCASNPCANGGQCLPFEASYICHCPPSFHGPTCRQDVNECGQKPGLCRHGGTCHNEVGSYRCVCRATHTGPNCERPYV
Method: The functionality of each candidate variant humanized heavy and light chain was tested by cotransfection into mammalian cells. Each of the eleven candidate humanized 13M57 heavy chains described above was cotransfected with the murine 13M57 light chain cDNA into HEK 293 cells, and conditioned media was then assayed for Notch1 antigen binding activity by ELISA. […] This variant—“13M57H5”—contained, in additional to murine CDRs, murine residues at five framework positions, Kabat positions 44, 46, 49, 89, and 93 (FIG. 3). The 13M57H5 humanized heavy chain was then cotransfected with each of the eleven candidate humanized light chains into HEK293 cells, and conditioned media was again assayed for antigen binding by ELISA. […] To evaluate the importance of the individual murine residues in 13M57 L5 and 13M57 L6, a farther series of candidate variant light chains were synthesized that combined one or more of the murine residues at Kabat positions 42-45 and 89-90. These candidate variant light chains were then tested as described above.

[3] = molecular target: T1, Notch1 antigen protein (amino acids …); assay: Biacore, binding to Notch1 antigen
From the text: The two best humanized 13M57 antibodies (13M57H5 L6 and 13M57H5 L21) were then further characterized. The humanized 13M57 antibodies were purified using protein A chromatography.

B2: 13M57H5 humanized heavy chain cotransfected with the murine 13M57 light chain (antibody, human IgG2, V domains shown)
VH: EVQLVESGGGLVQPGGSLRLSCAASGFTFSSYTMSWVRQAPGKRLEWVAYIDYGGDFTSYSDAIRGRFTISRDNAKNTLYLQMNSLRAEDTAIYYCSRRRYDAMDYWGQGTLVTVSS
VL: DIQMTQSTSSLSASLGDRVTVSCSASQAISNYLNWYQQKPDGTLKLLIYYTTNLHSGVPSRFSGSGSGTDYSLTISNLEPEDIATYYCQQYSKFPWTFGGGTKLEIK
notes: Heavy chain fused to the human IgG2 constant region; tested as conditioned medium from HEK 293 cells
- binding result [2]: binds

B3: humanized 13M57H5L6 antibody (antibody, human IgG2, V domains shown)
VH: B2 VH
VL: DIQMTQSPSSLSASVGDRVTITCSASQAISNYLNWYQQKPGKAPKLLIYYTTNLHSGVPSRFSGSGSGTDYSFTISSLQPEDIATYYCQQYSKFPWTFGGGTKVEIKR
notes: Variant heavy chains were fused in-frame to the human IgG2 constant region; also called 13M57 L6H5; humanized L6H5 13M57
- Kd [3]: ~0.08 nM

Now from value to binder:

- Kd [1]: 0.05 nM
B1: murine monoclonal antibody 13M57 (antibody, from another filing, V domains shown)
VH: B2 VH with Q3N, G10D, A40T, G42E, N84S, R87K, A88S, L112S, T114I
VL: DIQMTQSTSSLSASLGDRVTVSCSASQAISNYLNWYQQKPDGTLKLLIYYTTNLHSGVPSRFSGSGSGTDYSLTISNLEPEDIATYYCQQYSKFPWTFGGGTKLEIKR

- Kd [3]: ~0.1 nM
B4: humanized 13M57H5L21 antibody (antibody, human IgG2, V domains shown)
VH: B2 VH
VL: B3 VL with G41D, K42G, A43T, P44L
notes: Human IgG2 heavy chain constant region; also called 13M57 L21H5; ATCC PTA-8424
